For this test, the target named is ack1_mouse Tnk2 (UniProt O54967).
ack1_mouse Tnk2, sequence (O54967 whole entry): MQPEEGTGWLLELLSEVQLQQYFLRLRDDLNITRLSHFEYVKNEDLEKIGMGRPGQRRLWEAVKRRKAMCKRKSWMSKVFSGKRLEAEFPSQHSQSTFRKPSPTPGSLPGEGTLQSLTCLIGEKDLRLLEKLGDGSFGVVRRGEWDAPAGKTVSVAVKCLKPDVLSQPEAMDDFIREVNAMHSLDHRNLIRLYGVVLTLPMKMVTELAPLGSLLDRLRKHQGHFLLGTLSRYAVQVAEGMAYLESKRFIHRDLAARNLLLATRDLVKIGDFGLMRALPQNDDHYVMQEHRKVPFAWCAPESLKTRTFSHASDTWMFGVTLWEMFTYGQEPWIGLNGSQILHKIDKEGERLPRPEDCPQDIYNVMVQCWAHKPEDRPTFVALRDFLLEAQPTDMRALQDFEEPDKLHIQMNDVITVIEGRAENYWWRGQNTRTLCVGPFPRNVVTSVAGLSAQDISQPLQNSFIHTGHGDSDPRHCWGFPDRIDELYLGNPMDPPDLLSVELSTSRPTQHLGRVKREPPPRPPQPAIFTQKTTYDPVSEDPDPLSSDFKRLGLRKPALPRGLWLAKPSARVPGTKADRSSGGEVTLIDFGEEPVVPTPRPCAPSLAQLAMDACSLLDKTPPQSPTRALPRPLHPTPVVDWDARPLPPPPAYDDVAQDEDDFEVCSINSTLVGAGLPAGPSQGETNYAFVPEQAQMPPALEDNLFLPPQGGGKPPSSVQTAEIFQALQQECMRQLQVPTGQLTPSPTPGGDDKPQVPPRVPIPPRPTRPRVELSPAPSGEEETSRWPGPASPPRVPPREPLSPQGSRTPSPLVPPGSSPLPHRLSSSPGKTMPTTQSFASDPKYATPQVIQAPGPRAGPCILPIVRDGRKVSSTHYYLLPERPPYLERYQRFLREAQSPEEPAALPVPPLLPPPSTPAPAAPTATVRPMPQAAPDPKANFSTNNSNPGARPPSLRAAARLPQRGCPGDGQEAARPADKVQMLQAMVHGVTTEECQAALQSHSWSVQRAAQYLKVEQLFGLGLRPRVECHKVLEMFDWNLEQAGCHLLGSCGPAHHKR

On to “SH2/SH3 adapter protein NCK1 (Homo sapiens) (from UniProt P16333-1) R308A”, for which the “effect of a mutation on the interaction” value is “disrupting interaction strength”.
